Source: US20030113892A1
No end group written: not given here.

B1: birtoxin (peptide)
chain: ADVPGNYPLDKDGNTYKCFLLGGNEECLNVCKLHGVQYGYCYASKCWCEYLEDDKDVS
modifications: also: three disulfide bridges, pairings not given here

Columns and labels:
[1] = molecular target: rat brain synaptosomes (voltage-gated sodium channel, receptor site 3) (rat); experiment: cell-based or functional assay
[2] = molecular target: rat brain synaptosomes (voltage-gated sodium channel, receptor site 3) (rat)

| Molecule | enhancement of [3H] BTX binding to rat brain synaptosomes [1] | EC50 [2] |
| --- | --- | --- |
| uctoxin (peptide) | 2 fold | 60 nM |
| B1 | 4.32 fold | 5 nM |
